B1: Netrin-G1 (Homo sapiens), Q9Y2I2 (parent)
chain: MYLSRFLSIHALWVTVSSVMQPYPLVWGHYDLCKTQIYTEEGKVWDYMACQPESTDMTKYLKVKLDPPDITCGDPPETFCAMGNPYMCNNECDASTPELAHPPELMFDFEGRHPSTFWQSATWKEYPKPLQVNITLSWSKTIELTDNIVITFESGRPDQMILEKSLDYGRTWQPYQYYATDCLDAFHMDPKSVKDLSQHTVLEIICTEEYSTGYTTNSKIIHFEIKDRFAFFAGPRLRNMASLYGQLDTTKKLRDFFTVTDLRIRLLRPAVGEIFVDELHLARYFYAISDIKVRGRCKCNLHATVCVYDNSKLTCECEHNTTGPDCGKCKKNYQGRPWSPGSYLPIPKGTANTCIPSISSIGNCECFGHSNRCSYIDLLNTVICVSCKHNTRGQHCELCRLGYFRNASAQLDDENVCIECYCNPLGSIHDRCNGSGFCECKTGTTGPKCDECLPGNSWHYGCQPNVCDNELLHCQNGGTCHNNVRCLCPAAYTGILCEKLRCEEAGSCGSDSGQGAPPHGSPALLLLTTLLGTASPLVF
partner: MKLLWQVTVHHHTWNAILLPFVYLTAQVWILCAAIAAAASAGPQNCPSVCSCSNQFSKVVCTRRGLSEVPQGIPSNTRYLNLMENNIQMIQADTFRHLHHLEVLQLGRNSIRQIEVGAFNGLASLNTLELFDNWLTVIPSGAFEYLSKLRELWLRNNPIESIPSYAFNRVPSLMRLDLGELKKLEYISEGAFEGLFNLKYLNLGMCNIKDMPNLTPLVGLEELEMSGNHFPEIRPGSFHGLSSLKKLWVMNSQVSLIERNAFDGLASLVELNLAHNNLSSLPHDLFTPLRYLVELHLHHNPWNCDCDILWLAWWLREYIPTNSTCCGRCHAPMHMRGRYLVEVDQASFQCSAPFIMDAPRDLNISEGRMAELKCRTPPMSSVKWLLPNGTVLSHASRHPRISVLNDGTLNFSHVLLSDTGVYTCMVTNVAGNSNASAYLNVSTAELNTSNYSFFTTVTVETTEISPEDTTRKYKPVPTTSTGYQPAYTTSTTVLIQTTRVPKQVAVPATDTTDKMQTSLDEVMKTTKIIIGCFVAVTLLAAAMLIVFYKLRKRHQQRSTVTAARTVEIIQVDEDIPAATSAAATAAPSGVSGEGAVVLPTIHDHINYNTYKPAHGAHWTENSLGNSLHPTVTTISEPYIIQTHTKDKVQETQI
B2: Netrin-G2 (Homo sapiens), Q96CW9 (parent)
chain: MLHLLALFLHCLPLASGDYDICKSWVTTDEGPTWEFYACQPKVMRLKDYVKVKVEPSGITCGDPPERFCSHENPYLCSNECDASNPDLAHPPRLMFDKEEEGLATYWQSITWSRYPSPLEANITLSWNKTVELTDDVVMTFEYGRPTVMVLEKSLDNGRTWQPYQFYAEDCMEAFGMSARRARDMSSSSAHRVLCTEEYSRWAGSKKEKHVRFEVRDRFAIFAGPDLRNMDNLYTRLESAKGLKEFFTLTDLRMRLLRPALGGTYVQRENLYKYFYAISNIEVIGRCKCNLHANLCSMREGSLQCECEHNTTGPDCGKCKKNFRTRSWRAGSYLPLPHGSPNACATAGSFGNCECYGHSNRCSYIDFLNVVTCVSCKHNTRGQHCQHCRLGYYRNGSAELDDENVCIECNCNQIGSVHDRCNETGFCECREGAAGPKCDDCLPTHYWRQGCYPNVCDDDQLLCQNGGTCLQNQRCACPRGYTGVRCEQPRCDPADDDGGLDCDRAPGAAPRPATLLGCLLLLGLAARLGR
partner: B1 partner
B3: Leucine-rich repeat-containing protein 4C (Homo sapiens), Q9HCJ2 (parent)
chain: MLNKMTLHPQQIMIGPRFNRALFDPLLVVLLALQLLVVAGLVRAQTCPSVCSCSNQFSKVICVRKNLREVPDGISTNTRLLNLHENQIQIIKVNSFKHLRHLEILQLSRNHIRTIEIGAFNGLANLNTLELFDNRLTTIPNGAFVYLSKLKELWLRNNPIESIPSYAFNRIPSLRRLDLGELKRLSYISEGAFEGLSNLRYLNLAMCNLREIPNLTPLIKLDELDLSGNHLSAIRPGSFQGLMHLQKLWMIQSQIQVIERNAFDNLQSLVEINLAHNNLTLLPHDLFTPLHHLERIHLHHNPWNCNCDILWLSWWIKDMAPSNTACCARCNTPPNLKGRYIGELDQNYFTCYAPVIVEPPADLNVTEGMAAELKCRASTSLTSVSWITPNGTVMTHGAYKVRIAVLSDGTLNFTNVTVQDTGMYTCMVSNSVGNTTASATLNVTAATTTPFSYFSTVTVETMEPSQDEARTTDNNVGPTPVVDWETTNVTTSLTPQSTRSTEKTFTIPVTDINSGIPGIDEVMKTTKIIIGCFVAITLMAAVMLVIFYKMRKQHHRQNHHAPTRTVEIINVDDEITGDTPMESHLPMPAIEHEHLNHYNSYKSPFNHTTTVNTINSIHSSVHEPLLIRMNSKDNVQETQI
partner: B2 chain
B4: Leucine-rich repeat-containing protein 4 (Homo sapiens), Q9HBW1 (parent)
chain: B1 partner
partner: B2 chain

Variants of: B1
Conditions: with lrrc4_human LRRC4, Q9HBW1

effect of a mutation on the interaction	Variant
disrupting interaction	MYLSRFLSIHALWVTVSSVMQPYPLVWGHYDLCKTQIYTEEGKVWDYMACQPESTDMTKYLKVKLDPPDITCGDPPETFCAMGNPTMCNNECDASTPELAHPPELMFDFEGRHPSTFWQSATWKEYPKPLQVNITLSWSKTIELTDNIVITFESGRPDQMILEKSLDYGRTWQPYQYYATDCLDAFHMDPKSVKDLSQHTVLEIICTEEYSTGYTTNSKIIHFEIKDRFAFFAGPRLRNMASLYGQLDTTKKLRDFFTVTDLRIRLLRPAVGEIFVDELHLARYFYAISDIKVRGRCKCNLHATVCVYDNSKLTCECEHNTTGPDCGKCKKNYQGRPWSPGSYLPIPKGTANTCIPSISSIGNCECFGHSNRCSYIDLLNTVICVSCKHNTRGQHCELCRLGYFRNASAQLDDENVCIECYCNPLGSIHDRCNGSGFCECKTGTTGPKCDECLPGNSWHYGCQPNVCDNELLHCQNGGTCHNNVRCLCPAAYTGILCEKLRCEEAGSCGSDSGQGAPPHGSPALLLLTTLLGTASPLVF [Y86T]
disrupting interaction	MYLSRFLSIHALWVTVSSVMQPYPLVWGHYDLCKTQIYTEEGKVWDYMACQPESTDMTKYLKVKLDPPDITCGDPPETFCAMGNAYMCNNECDASTPELAHPPELMFDFEGRHPSTFWQSATWKEYPKPLQVNITLSWSKTIELTDNIVITFESGRPDQMILEKSLDYGRTWQPYQYYATDCLDAFHMDPKSVKDLSQHTVLEIICTEEYSTGYTTNSKIIHFEIKDRFAFFAGPRLRNMASLYGQLDTTKKLRDFFTVTDLRIRLLRPAVGEIFVDELHLARYFYAISDIKVRGRCKCNLHATVCVYDNSKLTCECEHNTTGPDCGKCKKNYQGRPWSPGSYLPIPKGTANTCIPSISSIGNCECFGHSNRCSYIDLLNTVICVSCKHNTRGQHCELCRLGYFRNASAQLDDENVCIECYCNPLGSIHDRCNGSGFCECKTGTTGPKCDECLPGNSWHYGCQPNVCDNELLHCQNGGTCHNNVRCLCPAAYTGILCEKLRCEEAGSCGSDSGQGAPPHGSPALLLLTTLLGTASPLVF [P85A]

Variants of: B2
Conditions: with lrrc4_human LRRC4, Q9HBW1

effect of a mutation on the interaction	Variant
disrupting interaction	MLHLLALFLHCLPLASGDYDICKSWVTTDEGPTWEFYACQPKVMRLKDYVKVKVEPSGITCGDPPERFCSHENPTLCSNECDASNPDLAHPPRLMFDKEEEGLATYWQSITWSRYPSPLEANITLSWNKTVELTDDVVMTFEYGRPTVMVLEKSLDNGRTWQPYQFYAEDCMEAFGMSARRARDMSSSSAHRVLCTEEYSRWAGSKKEKHVRFEVRDRFAIFAGPDLRNMDNLYTRLESAKGLKEFFTLTDLRMRLLRPALGGTYVQRENLYKYFYAISNIEVIGRCKCNLHANLCSMREGSLQCECEHNTTGPDCGKCKKNFRTRSWRAGSYLPLPHGSPNACATAGSFGNCECYGHSNRCSYIDFLNVVTCVSCKHNTRGQHCQHCRLGYYRNGSAELDDENVCIECNCNQIGSVHDRCNETGFCECREGAAGPKCDDCLPTHYWRQGCYPNVCDDDQLLCQNGGTCLQNQRCACPRGYTGVRCEQPRCDPADDDGGLDCDRAPGAAPRPATLLGCLLLLGLAARLGR [Y75T]
disrupting interaction	MLHLLALFLHCLPLASGDYDICKSWVTTDEGPTWEFYACQPKVMRLKDYVKVKVEPSGITCGDPPERFCSHENAYLCSNECDASNPDLAHPPRLMFDKEEEGLATYWQSITWSRYPSPLEANITLSWNKTVELTDDVVMTFEYGRPTVMVLEKSLDNGRTWQPYQFYAEDCMEAFGMSARRARDMSSSSAHRVLCTEEYSRWAGSKKEKHVRFEVRDRFAIFAGPDLRNMDNLYTRLESAKGLKEFFTLTDLRMRLLRPALGGTYVQRENLYKYFYAISNIEVIGRCKCNLHANLCSMREGSLQCECEHNTTGPDCGKCKKNFRTRSWRAGSYLPLPHGSPNACATAGSFGNCECYGHSNRCSYIDFLNVVTCVSCKHNTRGQHCQHCRLGYYRNGSAELDDENVCIECNCNQIGSVHDRCNETGFCECREGAAGPKCDDCLPTHYWRQGCYPNVCDDDQLLCQNGGTCLQNQRCACPRGYTGVRCEQPRCDPADDDGGLDCDRAPGAAPRPATLLGCLLLLGLAARLGR [P74A]

Variants of: B3
Conditions: with ntng2_human NTNG2, Q96CW9

effect of a mutation on the interaction	Variant
disrupting interaction	A205T

Variants of: B4
Conditions: with ntng2_human NTNG2, Q96CW9

effect of a mutation on the interaction	Variant
disrupting interaction	G204T

Reference: IntAct's records for PubMed 21946559
